What was measured:
[1] = target: T1, human PRLR on HEK293/hPRLR cells (Homo sapiens, UniProt P16471); assay: FACS cell surface binding
T1 construct: HA; expressed in transfected cells; host or cells: HEK293
T1 sequence (P16471 25-622): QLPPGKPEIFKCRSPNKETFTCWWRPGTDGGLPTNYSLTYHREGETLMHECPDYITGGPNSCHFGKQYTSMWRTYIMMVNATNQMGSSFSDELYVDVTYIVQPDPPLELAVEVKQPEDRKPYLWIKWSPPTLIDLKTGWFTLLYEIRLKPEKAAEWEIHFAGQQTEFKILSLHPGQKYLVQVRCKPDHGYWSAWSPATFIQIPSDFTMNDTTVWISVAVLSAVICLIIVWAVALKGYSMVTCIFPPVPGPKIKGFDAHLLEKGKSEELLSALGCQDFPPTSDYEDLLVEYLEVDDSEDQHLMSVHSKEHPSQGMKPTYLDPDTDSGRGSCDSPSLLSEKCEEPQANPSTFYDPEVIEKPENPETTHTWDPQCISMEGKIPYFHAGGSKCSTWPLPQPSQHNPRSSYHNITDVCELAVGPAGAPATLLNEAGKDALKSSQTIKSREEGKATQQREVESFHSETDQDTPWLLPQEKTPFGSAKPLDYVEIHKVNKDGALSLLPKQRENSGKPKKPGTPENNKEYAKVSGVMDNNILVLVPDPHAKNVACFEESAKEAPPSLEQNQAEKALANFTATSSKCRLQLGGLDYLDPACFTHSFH
Procedure, shortened: (§1)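 HEK293 cells stably transfected with HA-tagged human, cynomolgus or mouse PRLR (G418-selected), or parental HEK293, were stained with 10 μg/ml antibody for 30 min on ice. Binding was then detected with 10 μg/ml PE anti-human secondary for 30 min on ice, and MFI was expressed as fold over isotype control.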

[2] = target: T2, monkey PRLR on HEK293/mfPRLR cells (Macaca fascicularis, UniProt A0A2K5WXK1); assay: FACS cell surface binding
T2 construct: HA; expressed in transfected cells; host or cells: HEK293
T2 sequence (A0A2K5WXK1 25-619): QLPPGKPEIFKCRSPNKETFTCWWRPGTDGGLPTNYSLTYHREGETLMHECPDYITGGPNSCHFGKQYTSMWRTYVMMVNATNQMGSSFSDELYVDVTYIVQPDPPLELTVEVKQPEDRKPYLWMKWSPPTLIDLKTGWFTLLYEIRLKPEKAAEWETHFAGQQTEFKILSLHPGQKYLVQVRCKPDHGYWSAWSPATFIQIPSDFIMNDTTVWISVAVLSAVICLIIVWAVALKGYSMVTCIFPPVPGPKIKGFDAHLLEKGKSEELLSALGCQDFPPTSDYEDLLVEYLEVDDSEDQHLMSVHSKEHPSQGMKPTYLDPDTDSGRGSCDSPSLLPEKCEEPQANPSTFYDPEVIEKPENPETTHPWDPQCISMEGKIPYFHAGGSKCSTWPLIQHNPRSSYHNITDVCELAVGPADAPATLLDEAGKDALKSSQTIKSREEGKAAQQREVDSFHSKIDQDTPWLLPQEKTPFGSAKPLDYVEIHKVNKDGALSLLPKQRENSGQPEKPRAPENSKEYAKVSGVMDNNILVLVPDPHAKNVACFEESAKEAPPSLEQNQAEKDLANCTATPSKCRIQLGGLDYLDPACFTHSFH
Procedure, shortened: as §1

[3] = target: T3, native PRLR expressing T47D cells (Homo sapiens, UniProt P16471); assay: FACS cell surface binding
T3 construct: a native PRLR expressing cell line (T47D); endogenous in cells; host or cells: T47D
T3 sequence (P16471 25-622): T1 sequence (P16471 25-622)
Procedure, shortened: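 Flow cytometry on native PRLR-expressing T47D cells, alongside PRLR-overexpressing and parental HEK293 lines. Cells (1×10^5) incubated with antibody at 10 μg/ml, 30 min on ice, then PE anti-human secondary; binding reported as MFI fold over isotype control.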

[4] = system: MCF7/PRLR tumors; assay: MCF7/PRLR breast cancer xenograft, tumor size and tumor growth inhibition; type: in vivo, NCr nude mice
Procedure, shortened: (§2)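 MCF7/PRLR cells in mammary fat pad of female NCr nude mice, PC3/PRLR in flank of male SCID, T47D #11 in flank of female CB17 SCID, all with estrogen pellets.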

[5] = system: PC3/PRLR tumors; assay: PC3/PRLR xenograft, tumor size and tumor growth inhibition; type: in vivo, SCID mice; conditions: for Average Tumor Growth Inhibition (%) / Final Tumor size mm^3 (mean ± SEM): SCID mice
Procedure, shortened: as §2

[6] = MCF7/PRLR tumors TRIAL #1, NCr Nude mice, multi-dose 15 mg/kg, Day 52
[7] = PC3/PRLR tumors TRIAL #1, multi-dose 15 mg/kg, Day 63
[8] = MCF7/PRLR tumors TRIAL #2, NCr Nude mice, multi-dose 15 mg/kg, Day 63
[9] = PC3/PRLR tumors TRIAL #2, multi-dose 15 mg/kg, Day 55
[10] = MCF7/PRLR tumors TRIAL #1, NCr Nude mice, multi-dose 5 mg/kg, Day 52
[11] = MCF7/PRLR tumors TRIAL #2, NCr Nude mice, multi-dose 5 mg/kg, Day 63
[12] = PC3/PRLR tumors TRIAL #2, multi-dose 5 mg/kg, Day 55

B1: H1H6975N: anti-PRLR antibody, human IgG1 Fc form of H2M6975N of Table 1; HCVR/LCVR SEQ ID NOs 370/378 (antibody, V domains shown)
VH: EVHLVESGGGLVQPGGSLRLSCAASGFTFSSYEMNWVRQTPGKGLEWISHISSRSVIIYYADSVKGRFTISRDNAKNSLFLQMNSLRAEDTAVYFCAGITIFGIPEYWGQGTLVTVSS
VL: EIVLTQSPATLSLSPGERATLSCRASQSVSSYFAWYQQKPGQAPRLLIYDASSRATGIPTRFSGSGSGTDFTLTISSLEPEDFAVYYCQQRSSWPITFGQGTRLEIK
modifications: human IgG1 Fc
With B1 the “FACS Cell Binding” value [1] was 38 Fold Above Background, the “FACS Cell Binding” value [2] was 29 Fold Above Background and the “FACS Cell Binding” value [3] was 46 Fold Above Background. The “Average Tumor Growth Inhibition (%)” value [4, 6] was 51%, the “Final Tumor size mm^3 (mean ± SEM)” value [4, 6] was 659 ± 144 mm^3 and the “Average Tumor Growth Inhibition (%)” value [5, 7] was 12%. The “Final Tumor size mm^3 (mean ± SEM)” value [5, 7] was 1185 ± 97 mm^3.

B2: H1H6774P: fully human anti-PRLR antibody, human IgG1 Fc; HCVR/LCVR SEQ ID NOs 34/42 (antibody, V domains shown)
VH: EVQLVESGGGLAQPGGSLRLSCVASGFTFSTYWMSWVRQAPGKGLDWVGNIKQDGSEQNYVDSVRGRFTISRDNAKNSLFLQMNSLRAEDTGVYYCATLLTKGDYWGQGTLVTVSS
VL: DIQMTQSPSSLSASVGDSVTITCRASQDISNYLDWFQQKPGKAPKSLIYAASILQGGVPSRFSGSGYGTDFTLTISSLQPEDFATYYCRQYKTYPFTFGPGTKVDIK
B2 was tested, and the “FACS Cell Binding” value [1] was 1 Fold Above Background, the “FACS Cell Binding” value [2] was 29 Fold Above Background and the “FACS Cell Binding” value [3] was 39 Fold Above Background.

B3: H1H6795P: fully human anti-PRLR antibody, human IgG1 Fc; HCVR/LCVR SEQ ID NOs 162/170 (antibody, V domains shown)
VH: QVQLVQSGAEVKKPGASVKVSCKASGYTFGTSGITWVRQAPGQGLEWMGWSSAYNGKTDYAQKFQDRVTMTTDTSTTTGYMEMRSLTSDDTAVYYCTTVVRRPFDFWGQGTLVTVSS
VL: DIQMTQSPSSLSASVGDRVTITCRASQDINNFLAWFQQKPGKAPKSLIYAASSLQSGVPSKFSGGGSGTDFALTISSLQPEDFATYYCQQYSSYPITFGQGTRLEIK
With B3 the “FACS Cell Binding” value [1] was 1 Fold Above Background, the “FACS Cell Binding” value [2] was 22 Fold Above Background and the “FACS Cell Binding” value [3] was 34 Fold Above Background.

B4: H1H6765P: fully human anti-PRLR antibody, human IgG1 Fc; HCVR/LCVR SEQ ID NOs 18/26 (antibody, V domains shown)
VH: EVQLVESGGGVVRPGGSLRLSCVGSGFSFDDHGMNWVRQGPGKGLEWVSGFNWNGGSTNYAESVKGRFTISRDNARNSLFLQMNSLRAEDTALYYCVRGRSGWFNDAFDVWGPGTMVTVSS
VL: EIVLTQSPGTLSLSPGERATLSCRASQTINSNYLAWYRQKPGQTPRLLIYGTSSRATGIPDRFSGSGSGTDFSLTISRLEPEDFAVFYCQQYAGLPTFGPGTKVDIK
With B4 the “FACS Cell Binding” value [1] was 38 Fold Above Background, the “FACS Cell Binding” value [2] was 27 Fold Above Background and the “FACS Cell Binding” value [3] was 40 Fold Above Background. For the same molecule, the “Average Tumor Growth Inhibition (%)” value [4, 8] was 19%, the “Final Tumor size mm^3 (mean ± SEM)” value [4, 8] was 737 ± 182 mm^3 and the “Final Tumor size mm^3 (mean ± SEM)” value [5, 9] was 1208 ± 72 mm^3.

B5: H1H6797P: fully human anti-PRLR antibody, human IgG1 Fc; HCVR/LCVR SEQ ID NOs 178/186 (antibody, V domains shown)
VH: EVQLVESGGGLVQPGGSLRLSCIVSGFTFSGSWMSWVRQLPGKGLEWVANIKEDGSDSYYVDSVEGRFTISRDNAKSSLYLQMNSLRVDDTAVYFCARARTVPLHYWGQGTLVTVSS
VL: DIQMTQSPSTLSASVGDRVTITCRASQSINIWLAWYQQKPGKAPKLLIYRASYLESGVPSSFAGGGSGTEFTLTISSLQPDDFGTYYCQHYNSYPFTFGQGTKLEIK
For B5, the “FACS Cell Binding” value [1] was 1 Fold Above Background, the “FACS Cell Binding” value [2] was 25 Fold Above Background and the “FACS Cell Binding” value [3] was 38 Fold Above Background.

B6: H1H6958N2-DM1: anti-PRLR antibody H1H6958N2 conjugated to the maytansinoid DM1 through an SMCC linker (conjugate)
VH: QVQLVESGGGVVQPGRSLRLSCGASGFTFRNYGMQWVRQGPGKGLEWVTLISFDGNDKYYADSVKGRFTISRDNSKNTLFLQMNSLRTEDTAVYYCARGGDFDYWGQGTLVTVSS
VL: DIQMTQSPSSLSASVGDRVTITCRASQDIRKDLGWYQQKPGKAPKRLIYAASSLHSGVPSRFSGSGSGTEFTLTISSLQPEDFATYYCLQHNSYPMYTFGQGTKLEIK
For B6, the “Average Tumor Growth Inhibition (%)” value [4, 10] was 128%, the “Final Tumor size mm^3 (mean ± SEM)” value [4, 10] was 51 ± 33 mm^3 and the “Average Tumor Growth Inhibition (%)” value [4, 6] was 133%. The “Final Tumor size mm^3 (mean ± SEM)” value [4, 6] was 0 ± 0 mm^3, the “Average Tumor Growth Inhibition (%)” value [4, 11] was 116% and the “Final Tumor size mm^3 (mean ± SEM)” value [4, 11] was 117 ± 10 mm^3. For the same molecule, the “Average Tumor Growth Inhibition (%)” value [4, 8] was 137%, the “Final Tumor size mm^3 (mean ± SEM)” value [4, 8] was 0 ± 0 mm^3 and the “MCF7/PRLR tumor growth” value ([4]; first multi-dose trial, 5 and 15 mg/kg) was “potently inhibited MCF7/PRLR tumor growth”. The “tumor volume relative to vehicle control tumors” value ([4]; single dose 1 mg/kg) was “significant decrease in tumor volume”, the “Final Tumor size mm^3 (mean ± SEM)” value ([5]; PC3/PRLR tumors TRIAL #1, multi-dose 5 mg/kg, Day 63) was 1247 ± 171 mm^3 and the “Average Tumor Growth Inhibition (%)” value [5, 7] was 46%. For the same molecule, the “Final Tumor size mm^3 (mean ± SEM)” value [5, 7] was 808 ± 83 mm^3, the “Average Tumor Growth Inhibition (%)” value [5, 12] was 61% and the “Final Tumor size mm^3 (mean ± SEM)” value [5, 12] was 566 ± 63 mm^3. The “Average Tumor Growth Inhibition (%)” value [5, 9] was 94%, the “Final Tumor size mm^3 (mean ± SEM)” value [5, 9] was 230 ± 22 mm^3 and the “PC3/PRLR tumor growth” value ([5]; multi-dose, especially at 15 mg/kg) was “demonstrated inhibition of tumor growth”.

B7: H1H6958N2: anti-PRLR antibody, receptor blocking, human IgG1 Fc form of H2M6958N2 of Table 1; HCVR/LCVR SEQ ID NOs 290/298 (antibody, V domains shown)
VH: B6 VH
VL: B6 VL
With B7 the “FACS Cell Binding” value [1] was 35 Fold Above Background, the “FACS Cell Binding” value [2] was 30 Fold Above Background and the “FACS Cell Binding” value [3] was 37 Fold Above Background. The “Average Tumor Growth Inhibition (%)” value [4, 6] was 74%, the “Final Tumor size mm^3 (mean ± SEM)” value [4, 6] was 483 ± 46 mm^3 and the “Average Tumor Growth Inhibition (%)” value [4, 8] was 17%. The “Final Tumor size mm^3 (mean ± SEM)” value [4, 8] was 766 ± 128 mm^3, the “Final Tumor size mm^3 (mean ± SEM)” value ([4]; MCF7/PRLR tumors, single dose 15 mg/kg, Day 55) was 703 ± 160 mm^3 and the “Average Tumor Growth Inhibition (%)” value [5, 7] was −19%. For the same molecule, the “Final Tumor size mm^3 (mean ± SEM)” value [5, 7] was 1507 ± 106 mm^3, the “Average Tumor Growth Inhibition (%)” value [5, 9] was 28% and the “Final Tumor size mm^3 (mean ± SEM)” value [5, 9] was 917 ± 253 mm^3.

— patent publication US10925971B2, “Methods of treating PRLR positive breast cancer” (Regeneron Pharmaceuticals, Inc., priority 2016, dated 2021)
